This passage reports Kd results from publication PMC4822050.

Data set [1] has as its target T1, SRA-Spacer (human, UniProt Q96T88 414-674).
T1 sequence: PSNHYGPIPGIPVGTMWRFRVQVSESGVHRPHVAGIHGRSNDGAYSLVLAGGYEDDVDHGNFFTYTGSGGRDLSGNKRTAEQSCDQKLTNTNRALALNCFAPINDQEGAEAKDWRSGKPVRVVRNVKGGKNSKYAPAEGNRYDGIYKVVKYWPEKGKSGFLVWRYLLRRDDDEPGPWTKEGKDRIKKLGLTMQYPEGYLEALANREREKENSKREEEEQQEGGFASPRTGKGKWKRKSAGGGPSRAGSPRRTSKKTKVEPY
Briefly: FP; 150 mM NaCl; ITC: 10 mM HEPES pH 8.0, 100 mM NaCl, 18 C; EMSA: 20 mM HEPES pH 7.5, 100 mM NaCl, 8% glycerol, 1 mM DTT, on ice; pull-down: 20 mM HEPES-NaOH pH 8.0, 100 mM NaC. Background: A gel shift assay detects complexes by their altered migration in electrophoresis.

In the next data set the target is T2, SRA (human, UniProt Q96T88 414-617).
T2 sequence: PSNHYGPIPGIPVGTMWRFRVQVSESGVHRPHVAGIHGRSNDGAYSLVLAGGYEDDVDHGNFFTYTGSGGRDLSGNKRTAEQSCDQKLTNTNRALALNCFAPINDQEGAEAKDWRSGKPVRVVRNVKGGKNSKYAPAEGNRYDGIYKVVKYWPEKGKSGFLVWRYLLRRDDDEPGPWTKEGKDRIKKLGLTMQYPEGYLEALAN
Briefly: FP; 50 mM NaCl; ITC: 10 mM HEPES pH 8.0, 100 mM NaCl, 18 C; EMSA: 20 mM HEPES pH 7.5, 100 mM NaCl, 8% glycerol, 1 mM DTT, on ice; pull-down: 20 mM HEPES-NaOH pH 8.0, 100 mM NaC.

The target in data set [2] is T1, SRA-Spacer. Described as above.

B1: FAM-12bp-HM-DNA (dsDNA)
DNA 1: CCATGCGCTGAC
DNA 2: GTCAGCGCATGG
modifications: 5-methyl-dC at position 6 of strand 2 (GTCAGXGCATGG)
For B1, the figures for the Kd in the data set with SRA-Spacer [1], in the data set with SRA and in the data set with SRA-Spacer [2] were 580 ± 98 nM, 150 ± 18 nM and 24 ± 3.7 nM, respectively.
